# According to US20220152100A1, “METHODS FOR CONTROLLED ACTIVATION OR ELIMINATION OF THERAPEUTIC CELLS” (Bellicum Pharmaceuticals, Inc., priority 2014, published 2022):
# “Also recorded” adds a separate entry of the source. Where a SMILES comes first, the peptide text is derived from it. The star is where a group is joined. Cbz = O=C(OCc1ccccc1)*; CH2F = FC*
# Key:
# [1] = system: EBV-specific CTL lines (EBV-CTL); experiment: CID-induced elimination/apoptosis of transduced EBV-CTLs (GFP, annexin V/7-AAD flow cytometry); assay type: cell-based, human; settings: 100 μM for 1 hour prior to adding CID
# HEK293T/16 cells = experiment: SEAP-based surrogate killing assay of iCasp9 mutants; assay type: cell-based, human; settings: for effect on basal / catalytic activity: in words, versus wild type
# Protocol: Early passage HEK293T/16 cells (ATCC, Manassas, Va.) were maintained in IMDM, GlutaMAX™ (Life Technologies, Carlsbad, Calif.) supplemented with 10% FBS, 100 U/mL penicillin, and 100 […] until transfection in a humidified, 37° C., 5% CO2/95% air atmosphere. Cells in logarithmic-phase growth were transiently transfected with 800 ng to 2 μg of expression plasmid encoding iCasp9 mutants and 500 ng of an expression plasmid encoding SRα promoter driven SEAP per million cells in 15-mL conical tubes. […] GeneJammer® Transfection Reagent at a ratio of 3 μl per ug of plasmid DNA was used to transiently transfect HEK293T/16 cells in the absence of antibiotics. 100 μl or 2 mL of the transfection mixture was added to each well in 96-well or 6-well plate, respectively.
# Briefly, after 65° C. heat denaturation for 45 minutes to reduce background caused by endogenous (and serum-derived) alkaline phosphatases that are sensitive to heat, 5 μl of supernatants was added to 95 μl of PBS and added to 100 μl of substrate buffer, containing 1 μl of 100 mM 4-methylumbelliferyl phosphate (4-MUP; Sigma, St. Louis, Mo.) re-suspended in 2 M diethanolamine. Hydrolysis of 4-MUP by SEAP produces a fluorescent […] with excitation/emission (355/460 nm), which can be easily measured. Assays were performed in black opaque 96-well plates to minimize fluorescence leakage between wells. […] of the mixture was seeded onto each well of a 96-well plate. […] For the assay, 4-methylumbelliferyl phosphate substrate was hydrolyzed by SEAP to 4-methylumbelliferon, a metabolite that can be excited with 364 nm and detected with an emission filter of 448 nm. Since SEAP is used as a marker for cell viability, reduced SEAP reading corresponds with increased iCaspase-9 activities.
# PG13 = assay type: cell-based; settings: for CD19 mean fluorescence intensity (MFI): PG13 cross-transduced five times; for viral titers: upon HAT media treatment, HT1080 cells
# Primary T cells = experiment: AP1903-dependent cytotoxicity in primary T cells transduced with iCasp9 variants (CD3+CD19+ flow cytometry); assay type: cell-based, human; settings: for killing of target T cells: AP1903 at Day 0 and day 4, within 10 days
# Protocol: The effects of various caspase polypeptides at mostly single copy in primary T cells was assayed. This may reflect more accurately how these suicide genes will be used therapeutically.
# Primary T cells from healthy donors (n=6) were transduced with retrovirus encoding mutant or wild-type iCasp9 or iCasp9-D330A, and the ΔCD19 cell surface marker. Following transduction, iCasp9-transduced T cells were purified using CD19-microbeads and a magnetic column.
Molecule,effect on basal / catalytic activity (HEK293T/16 cells),CD19 mean fluorescence intensity (MFI) (PG13),viral titers (PG13),also measured
COC(=O)C[C@H](NC(=O)[C@H](C)NC(=O)[C@@H](NC(=O)OCc1ccccc1)C(C)C)C(=O)CF [zVAD-fmk] (Cbz-Val-Ala-Asp(OMe)-CH2F),–,–,–,effect on CID-induced apoptosis [1]: inhibited
"D330E: chimeric modified Caspase-9 polypeptide, SEQ ID NO: 188 (protein) VDGFGDVGALESLRGNADLAYILSMEPCGHCLIINNVNFCRESGLRTRTGSNIDCEKLRRRFSSLHFMVEVKGDLTAKKMVLALLELARQDHGALDCCVVVILSHGCQASHLQFPGAVYGTDGCPVSVEKIVNIFNGTSCPSLGGKPKLFFIQACGGEQKDHGFEVASTSPEDESPGSNPEPDATPFQEGLRTFDQLEAISSLPTPSDIFVSYSTFPGFVSWRDPKSGSWYVETLDDIFEQWAHSEDLQSLLLRVANAVSVKGIYKQMPGCFNFLRKKLFFKTSASRA",less basal activity than wild type Caspase-9,enhanced CD19 mean fluorescence intensity,higher viral titers,–
D330S: chimeric modified Caspase-9 polypeptide (protein) VDGFGDVGALESLRGNADLAYILSMEPCGHCLIINNVNFCRESGLRTRTGSNIDCEKLRRRFSSLHFMVEVKGDLTAKKMVLALLELARQDHGALDCCVVVILSHGCQASHLQFPGAVYGTDGCPVSVEKIVNIFNGTSCPSLGGKPKLFFIQACGGEQKDHGFEVASTSPEDESPGSNPEPDATPFQEGLRTFDQLSAISSLPTPSDIFVSYSTFPGFVSWRDPKSGSWYVETLDDIFEQWAHSEDLQSLLLRVANAVSVKGIYKQMPGCFNFLRKKLFFKTSASRA,less basal activity than wild type Caspase-9,–,–,–
D330G: chimeric modified Caspase-9 polypeptide (protein) VDGFGDVGALESLRGNADLAYILSMEPCGHCLIINNVNFCRESGLRTRTGSNIDCEKLRRRFSSLHFMVEVKGDLTAKKMVLALLELARQDHGALDCCVVVILSHGCQASHLQFPGAVYGTDGCPVSVEKIVNIFNGTSCPSLGGKPKLFFIQACGGEQKDHGFEVASTSPEDESPGSNPEPDATPFQEGLRTFDQLGAISSLPTPSDIFVSYSTFPGFVSWRDPKSGSWYVETLDDIFEQWAHSEDLQSLLLRVANAVSVKGIYKQMPGCFNFLRKKLFFKTSASRA,less basal activity than wild type Caspase-9,–,–,–
F404Y: chimeric modified Caspase-9 polypeptide (protein) VDGFGDVGALESLRGNADLAYILSMEPCGHCLIINNVNFCRESGLRTRTGSNIDCEKLRRRFSSLHFMVEVKGDLTAKKMVLALLELARQDHGALDCCVVVILSHGCQASHLQFPGAVYGTDGCPVSVEKIVNIFNGTSCPSLGGKPKLFFIQACGGEQKDHGFEVASTSPEDESPGSNPEPDATPFQEGLRTFDQLDAISSLPTPSDIFVSYSTFPGFVSWRDPKSGSWYVETLDDIFEQWAHSEDLQSLLLRVANAVSVKGIYKQMPGCYNFLRKKLFFKTSASRA,–,–,–,killing of target T cells (Primary T cells): can kill target T cells indistinguishable from wild type Caspase-9 polypeptide or D330A within 10 days
"D330A: chimeric modified Caspase-9 polypeptide, SEQ ID NO: 24 (protein) GFGDVGALESLRGNADLAYILSMEPCGHCLIINNVNFCRESGLRTRTGSNIDCEKLRRRFSSLHFMVEVKGDLTAKKMVLALLELARQDHGALDCCVVVILSHGCQASHLQFPGAVYGTDGCPVSVEKIVNIFNGTSCPSLGGKPKLFFIQACGGEQKDHGFEVASTSPEDESPGSNPEPDATPFQEGLRTFDQLAAISSLPTPSDIFVSYSTFPGFVSWRDPKSGSWYVETLDDIFEQWAHSEDLQSLLLRVANAVSVKGIYKQMPGCFNFLRKKLFFKTS","lowered basal activity, but not as low as in N405Q; also recorded: less basal activity than wild type Caspase-9",enhanced CD19 mean fluorescence intensity,higher viral titers,"relative SEAP activity Units (basal, without AP1903) (HEK293T/16 cells; 1 μg iCasp9 per million cells): 148928; relative SEAP activity Units (basal, without AP1903) (HEK293T/16 cells; 2 μg iCasp9 per million cells): 136863; sensitivity to AP1903 / killing of target cells (Primary T cells): more sensitive to AP1903 at low titers and kills at least as well as WT Caspase-9; IC50 of AP1903 (Primary T cells; 6 healthy donors, AP1903 0-100 nM, 24 hours): significantly lower"
"N405Q: chimeric modified Caspase-9 polypeptide, SEQ ID NO: 26 (protein) GFGDVGALESLRGNADLAYILSMEPCGHCLIINNVNFCRESGLRTRTGSNIDCEKLRRRFSSLHFMVEVKGDLTAKKMVLALLELARQDHGALDCCVVVILSHGCQASHLQFPGAVYGTDGCPVSVEKIVNIFNGTSCPSLGGKPKLFFIQACGGEQKDHGFEVASTSPEDESPGSNPEPDATPFQEGLRTFDQLDAISSLPTPSDIFVSYSTFPGFVSWRDPKSGSWYVETLDDIFEQWAHSEDLQSLLLRVANAVSVKGIYKQMPGCFQFLRKKLFFKTS",lowered basal activity; also recorded: lower basal activity than D330A,enhanced CD19 mean fluorescence intensity,higher viral titers,"relative SEAP activity Units (basal, without AP1903) (HEK293T/16 cells; 1 μg iCasp9 per million cells): 179081; relative SEAP activity Units (basal, without AP1903) (HEK293T/16 cells; 2 μg iCasp9 per million cells): 175529; sensitivity to AP1903 / killing of target cells (Primary T cells): less sensitive to AP1903 and cannot kill target cells as efficiently within 24 hours; killing of target T cells (Primary T cells): can kill target T cells indistinguishable from wild type Caspase-9 polypeptide or D330A within 10 days"
